Assays:
mature oligodendrocytes = assay: Mature oligodendrocyte survival and MBP expression; format: cell-based, rat
Experimental: Mature oligodendrocytes have a half-life in vitro of about 48 to 72 hours, with cells typically undergoing apoptosis after 72 hours. […] MBP expression was monitored as a marker for mature ologodendrocytes.

RhoA-GTP = RhoA-GTP levels in oligodendrocyte lysates (western blotting); format: cell-based, rat; conditions: versus corresponding control, FIG. 9A
Description: A strong candidate signaling pathway that is implicated in the control of oligodendrocyte differentiation is the Rho family of GTPases. Rho GTPases regulate cellular morphology, and reduced RhoA-GTP amounts are required for oligodendrocyte differentiation. See Liang, X, et al., J. Neurosci. 24:7140-7149 (2004). To determine whether Sp35 signals through the RhoA pathway, RhoAGTP levels in cell lysates of oligodendrocytes treated with Sp35-Fc were compared with levels in the corresponding control via western blotting.

[1] = system: spinal cord injury in Long Evans rats; assay: Spinal cord injury (dorsal hemisection), intrathecal mini-osmotic pump; format: in vivo, rat
Experimental: Spinal cord injury was induced in adult female Long Evans rats (190-210 g; Charles River). A dorsal hemisection was performed at T6/T7, completely interrupting the main dorsomedial and the minor dorsolateral corticospinal tract (CST) components. The cord was sterotaxically transected at a depth of 1.8 mm from the surface using a microscalpel. […] Postoperative care comprised analgesia (Buprenorphine/Buprenex, Reckitt Benckiset Healthcare Ltd., 0.05 mg/kg subcutaneously) every 8-12 hours for 3 days and antibiotic treatment (ampicillin, Bristol Myers Squibb, 100 mg/kg subcutaneously twice daily) for 7 days after surgery. Bladders were expressed manually twice a day for the duration of the study (4 weeks) or until return of function. On completion of the study, rats were anesthetized and trans-cardially perfused with heparinized saline followed by 4% paraformaldehyde (PFA). The spinal cords were removed, embedded in paraffin, and 10 μm sections were cut from for histological analysis.
To quantify apoptotic cell death after SCI, animals were euthanized 3 or 7 days after SCI and stained using anti-activated-Caspase-3 antibody (Cell Signaling Technologies) and TUNEL staining (Promega). The sections were also stained with anti-NeuN antibody (Chemicon) and anti-CC1 antibody (Calbiochem) to identify neurons and oligodendrocytes, respectively.

[2] = system: differentiated PC12 cells; assay: Apoptotic cell death in differentiated PC12 cells after NGF withdrawal (cell death ELISA / TUNEL); format: cell-based
human ErbB2 = target: T1, human ErbB2 (Homo sapiens, UniProt P04626); assay: AP-Sp35 binding to ErbB2-transfected CHO cells; conditions: pre-incubation with soluble fusion protein, FIG. 17B
T1 construct: expressed in transfected cells; host or cells: CHO cells, transient transfection with Fugene 6, assayed after 48 hours
Experimental: ErbB2 is a member of the type I family of transmembrane receptor tyrosine kinases. The family comprises four members: epidermal growth factor receptor (EGFR or ErbB1), ErB2 (HER2 or neu), ErbB3 and ErbB4. Oligodendrocyte differentiation is positively regulated by the ErbB2 receptor tyrosine kinase. To examine the potential interaction between Sp35 and ErB2, an N-terminal AP-tagged human Sp35 protein was tested for binding to human ErbB2-transfected Chinese hamster ovary (CHO) cells.
90% confluent CHO cells were transfected with various combinations of human ErbB2 vector expression plasmid using Fugene 6 reagents (Roche). After 48 hours, the transfected cells were washed with HBH (Hank's balanced salt solution, 1 mg/ml BSA, 20 mM HEPES (pH 7.0)) and incubated for 1.5 hours at 23° C. or […] with 4 μg/ml of AP-Sp35 (human placental alkaline phosphotase (AP) with an N-terminal six histidine tag, fused to the C-terminus of human Sp35 (residues 34-532), as described in Mi et al., Nat. Neurosci. 7:221-228 (2004)) or control AP-protein in HBH. Bound AP-Sp35 was detected directly or following detergent lysis of the cells by ELISA and enzymatic activity was quantified with 4-NPP as described in Mi et al. Nat. Neurosci. 7:221-228 (2004).
In order to identify the Sp35 domain that binds ErbB2, soluble truncated forms of AP-Sp35 were tested for binding. Both the LRR domain of Sp35 (amino acids 34-417 of SEQ ID NO:2) (AP-Sp35-LRR) and the extracellular domain of Sp35 (amino acids 34-532 of SEQ ID NO:2) (AP-Sp35) bound to ErbB2 expressed in CHO cells. […] FIGS. 17B and 17C.

B1: Sp35-Fc: extra-cellular portion of human Sp35 (residues 1-532) fused to the hinge and Fc region of human IgG1 (protein)
chain: TGCPPRCECSAQDRAVLCHRKRFVAVPEGIPTETRLLDLGKNRIKTLNQDEFASFPHLEELELNENIVSAVEPGAFNNLFNLRTLGLRSNRLKLIPLGVFTGLSNLTKLDISENKIVILLDYMFQDLYNLKSLEVGDNDLVYISHRAFSGLNSLEQLTLEKCNLTSIPTEALSHLHGLIVLRLRHLNINAIRDYSFKRLYRLKVLEISHWPYLDTMTPNCLYGLNLTSLSITHCNLTAVPYLAVRHLVYLRFLNLSYNPISTIEGSMLHELLRLQEIQLVGGQLAVVEPYAFRGLNYLRVLNVSGNQLTTLEESVFHSVGNLETLILDSNPLACDCRLLWVFRRRWRLNFNRQQPTCATPEFVQGKEFKDFPDVLLPNYFTCRRARIRDRKAQQVFVDEGHTVQFVCRADGDPPPAILWLSPRKHLVSAKSNGRLTVFPDGTLEVRYAQVQDNGTYLCIAANAGGNDSMPAHLHVRSYSPDWPHQPNKTFAFISNQPGE
modifications: left off: a dimerising Fc or GST
notes: extra-cellular portion of human Sp35 (residues 1-532) fused to the hinge and Fc region of human IgG1
survival rate for mature oligodendrocytes (mature oligodendrocytes; 10 μg/ml for 5 days, cell viability staining, versus control-Fc): significantly increased survival rate
increase in MBP protein expression (mature oligodendrocytes; cell staining and Western blot with anti-MBP antibody, versus control-Fc treated cells): approximately 3 fold
reduction in RhoA-GTP (RhoA-GTP): threefold reduction
number of activated-Caspase-3-positive neurons and oligodendrocytes versus controls ([1]; 3 days after SCI, 0.25 μl/h of 25 μM intrathecal): significantly smaller
neuron and oligodendrocyte survival in tissue surrounding the lesion site versus controls ([1]; four weeks after SCI, anti-βIII-tubulin and anti-O4 staining): more neurons and oligodendrocytes survived
cells undergoing apoptosis (TUNEL assay) ([2]; 18 hours after NGF withdrawal, versus control, FIG. 13 legend): fewer cells undergoing apoptosis
cell death (TUNEL ELISA) ([2]; 42 hours after withdrawal of NGF, FIG. 13): significantly reduced cell death
AP-Sp35 binding to ErbB2-expressing cells after pre-incubation (human ErbB2): blocked
